Experimental findings from paper PMC3630169 are described below.

The target in one assay is FhbA from B. hermsii strain MAN (B. hermsii strain MAN). Description: radioligand binding; OspE, FhbA or Tuf coated on microtitre plates (5–25 µg/ml in PBS, 4°C, 12 h), blocked with 0.5% BSA/PBS; ^125I-FH19-20 (50,000 cpm/well) mixed with serial dilutions of FH19-20 mutants; 37°C, 60 min; IC50 from fitted inhibition curves, three experiments in triplicate.
For the substance “FH19-20 R1203A (from UniProt P08603 1107-1231) (domain or fragment)”, the IC50mut/IC50wt was found to be 41.9.
As for “FH19-20 T1184R (from UniProt P08603 1107-1231) (domain or fragment)”, the IC50mut/IC50wt is 1.7.
In the case of “FH19-20 R1206A (from UniProt P08603 1107-1231) (domain or fragment)”, the IC50mut/IC50wt is 3.1.
On the same count and under the same terms, to “FH19-20 K1186A (from UniProt P08603 1107-1231) (domain or fragment)” belongs 0.5.
In turn, “FH19-20 W1183L (from UniProt P08603 1107-1231) (domain or fragment)” showed an IC50mut/IC50wt of 66.4.
Substance “FH19-20 L1189R (from UniProt P08603 1107-1231) (domain or fragment)” displayed an IC50mut/IC50wt of 4.9.
For “FH19-20 R1182A (from UniProt P08603 1107-1231) (domain or fragment)”, the IC50mut/IC50wt was found to be 18.
In the case of “FH19-20 R1210A (from UniProt P08603 1107-1231) (domain or fragment)”, the IC50mut/IC50wt was determined as 1.8.
Same read-out and setting: as for “FH19-20 W1157L (from UniProt P08603 1107-1231) (domain or fragment)”, the figure is 1.4.
“FH19-20 K1188A (from UniProt P08603 1107-1231) (domain or fragment)” returned an IC50mut/IC50wt of 1.6.
Substance “FH19-20 D1119G (from UniProt P08603 1107-1231) (domain or fragment)” displayed an IC50mut/IC50wt of 0.9.
“FH19-20 R1215Q (from UniProt P08603 1107-1231) (domain or fragment)” displayed an IC50mut/IC50wt of 2.
Turning to “FH19-20 Q1139A (from UniProt P08603 1107-1231) (domain or fragment)”, the IC50mut/IC50wt is 1.1.
As to “FH19-20 E1198A (from UniProt P08603 1107-1231) (domain or fragment)”, the IC50mut/IC50wt turned out to be 25.1.

The target in another assay is outer surface protein E (OspE) from B. burgdorferi sensu stricto strain N40 (B. burgdorferi sensu stricto strain N40). Described as above.
Regarding “FH19-20 R1203A (from UniProt P08603 1107-1231) (domain or fragment)”, the IC50mut/IC50wt came out at 4.7.
With “FH19-20 T1184R (from UniProt P08603 1107-1231) (domain or fragment)”, the IC50mut/IC50wt was 1.2.
Still for that read-out and setting: as for “FH19-20 R1206A (from UniProt P08603 1107-1231) (domain or fragment)”, the figure is 3.4; as for “FH19-20 K1186A (from UniProt P08603 1107-1231) (domain or fragment)”, 0.2; as for “FH19-20 W1183L (from UniProt P08603 1107-1231) (domain or fragment)”, 97.1.
As for “FH19-20 L1189R (from UniProt P08603 1107-1231) (domain or fragment)”, the IC50mut/IC50wt stood at 2.9.
“FH19-20 R1182A (from UniProt P08603 1107-1231) (domain or fragment)” registered an IC50mut/IC50wt of 3.
“FH19-20 R1210A (from UniProt P08603 1107-1231) (domain or fragment)” returned an IC50mut/IC50wt of 1.3.
“FH19-20 W1157L (from UniProt P08603 1107-1231) (domain or fragment)” came in with an IC50mut/IC50wt of 1.4.
“FH19-20 K1188A (from UniProt P08603 1107-1231) (domain or fragment)” showed an IC50mut/IC50wt of 0.8.
The same measure, in the same setting: to “FH19-20 D1119G (from UniProt P08603 1107-1231) (domain or fragment)” belongs 0.6; to “FH19-20 R1215Q (from UniProt P08603 1107-1231) (domain or fragment)”, 33.8; to “FH19-20 Q1139A (from UniProt P08603 1107-1231) (domain or fragment)”, 1.2.
Same read-out and setting: to “FH19-20 E1198A (from UniProt P08603 1107-1231) (domain or fragment)” belongs 24.7.
